Here are results for one molecule from article PMC1839166, “Type III Effector Activation via Nucleotide Binding, Phosphorylation, and Host Target Interaction” (PLoS Pathogens, 2007).

For one assay, the target named is T1, AvrB^QRY/AAA (Pseudomonas syringae pv. glycinea, UniProt P13835 1-321, QRY/AAA (Q208, R209, and Y210 to alanine)).
T1 construct: AvrB (avirulence protein B), Pseudomonas syringae pv. glycinea; also called triple mutation of Q208, R209, and Y210 to alanine; source: E. coli BL21 Rosetta, purified (glutathione column, TEV digestion, Source Q); not shown: GST, N-terminal, cleaved
T1 sequence: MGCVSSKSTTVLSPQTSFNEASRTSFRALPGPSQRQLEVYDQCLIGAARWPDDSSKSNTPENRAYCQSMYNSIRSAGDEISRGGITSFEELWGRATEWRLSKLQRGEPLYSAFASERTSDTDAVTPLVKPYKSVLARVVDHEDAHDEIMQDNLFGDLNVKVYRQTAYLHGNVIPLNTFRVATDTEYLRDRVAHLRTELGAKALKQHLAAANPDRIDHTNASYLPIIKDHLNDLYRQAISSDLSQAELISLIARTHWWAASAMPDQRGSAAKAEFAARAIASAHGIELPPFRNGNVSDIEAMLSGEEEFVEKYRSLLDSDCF
Kind of assay: ITC; VP-ITC microcalorimeter; RIN4_(142–176) peptide (50 to 450 μM) titrated in 6-μl injections into 5 to 25 μM wild-type or variant AvrB, stirring at 255 rpm; wild-type AvrB 6 μM with full-length RIN4 120 μM; nonbinding confirmed at as much as 25 μM and 450 μM. The note with it: both partners purified. On the technique in general: In ITC the heat of successive injections is recorded.

In assay [1] the target is T2, avirulence protein B (AvrB), wild type (Pseudomonas syringae pv. glycinea, UniProt P13835 1-321).
T2 construct: AvrB (avirulence protein B), type III effector of Pseudomonas syringae pv. glycinea; residues 26-53 and 56-321 are modelled in the AvrB/RIN4 structure; also called wild-type AvrB; source: E. coli BL21 Rosetta (pProEX-HTa), purified (nickel column, TEV digestion, Source Q, Sephacryl S200 if needed); not shown: His tag, N-terminal, cleaved
T2 sequence (P13835 whole entry, the tested form may be a part): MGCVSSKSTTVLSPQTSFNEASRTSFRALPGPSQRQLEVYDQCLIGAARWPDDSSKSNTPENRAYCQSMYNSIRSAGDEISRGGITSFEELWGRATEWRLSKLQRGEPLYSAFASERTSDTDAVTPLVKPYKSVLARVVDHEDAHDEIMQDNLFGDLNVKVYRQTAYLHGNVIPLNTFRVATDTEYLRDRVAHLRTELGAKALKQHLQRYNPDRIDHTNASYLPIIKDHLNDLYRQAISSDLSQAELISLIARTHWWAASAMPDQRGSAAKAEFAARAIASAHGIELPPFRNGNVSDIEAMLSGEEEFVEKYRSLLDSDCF
The description is as above. The note with it: both partners purified.

B1: RIN4_(142–176) (peptide, UniProt Q8GYN5 142-176, looked up)
peptide: PEKVTVVPKFGDWDENNPSSADGYTHIFNKVREER
notes: the last four residues are printed as REER; residues 150-172 are modelled in the structure; also called RIN4 peptide
Take B1: the Kd with AvrB^QRY/AAA is 9 µM; in assay [1], 3 µM.

As a reminder, the Kd is the concentration at which binding is half-saturated. Read a high Kd as weaker binding.
